# Results: patent US20120270297A1, “CULTURING AND GENETIC MANIPULATIONS OF THERMOTOGA SPP” (BOWLING GREEN STATE UNIVERSITY, priority 2011, published 2012)
# Like-named read-outs stand apart in the source and are kept apart here.
# B1: R.TneDI: Type II restriction endonuclease of T. neapolitana encoded by CTN_0339, recognizing CGCG; SEQ ID NO: 13 (protein, listed as Thermotoga neapolitana)
# chain: MRKTDPLIDIFKKNKERIDILGKAWDIFYFEGRAPDVGKRRENFIVEMIRKELSHFIKSVNQAPDTERNWDIEITFQDDSTKRYSIKTTEGFSDVKIAWDGFPTKDRILTFNFQADIFYIARNKDKIILCVIDLEKLRDLQREVEKNESKLEEYYSLPSSNTNPRGFGLKSSTVKRLIELSKKEENYLEIDYKPFPVELILKAKEEYFKGWYDLIKELIEKYQQ
# B2: M.TneDI: methyltransferase of T. neapolitana encoded by CTN_0340, modifies CGCG sequences; SEQ ID NO: 14 (protein, listed as Thermotoga neapolitana)
# chain: MKRRKSTRTSSFGVKGRESHDSSPFYSRAIYSNFSLPKPSEEDLIENPLPENLLDKVIEGDAREVLKKIPDCSIHLMVTSPPYNVGKEYDEDMTLDEYLEFIEEIMKEVYRVLVWGGRACFNVANLGRKPYIPLHAYLIHLFEKIGFLIRGEIIWDKGEAVSGSSTAWGSWMSPVNPVLRDQHEYIIVMSKGDLKRRKPSDREAKSTITREEFLEFTRSVWKFPPESAKRVGHPAPFPEELPYRCIQLYTFKGDVVLDPFAGVGTTCVAAVKTGRHFVGIEINPEYVKKAEERVKDILSKPTLFEDHC
# Columns and labels:
# [1] = tested on: T. sp. RQ7; assay: Selective levels of kanamycin in liquid and solid SVO media; type: cell-based, Thermotoga sp. RQ7; conditions: SVO plates, 48 h of incubation
# Description: (§1) One ml of overnight culture was mixed with 25 ml of hot SVO containing 0.3% GELRITE and poured to Petri dishes. Small discs of 7 mm in diameter were cut from Whatman qualitative filter paper and were placed on solidified plates. Various amount of kanamycin (50˜250 μg) was added to the paper discs. After 48 h of anaerobic incubation, sensitive strains would display inhibition zones surrounding the discs. To specify the selective levels of the antibiotic in both liquid and solid media, kanamycin ranging from 50 to 300 μg ml^−1 was supplemented, and the proliferation of bacteria was monitored for up to 72 h.
# (§2) We next specified the selective levels of kanamycin in both liquid and solid media. […] However, spontaneous mutations sometimes caused the cultures to become resistant to the antibiotic, and a complete inhibition over a period of 72 h was only possible when the input amount was increased to 150 μg ml^−1. Similar phenomena were also noticed with T. sp. RQ7. On SVO plates, spontaneous mutants of T. maritima and T. sp. […] Based on these observations, for the rest of the study, kanamycin was added at 150 μg ml^−1 to liquid media and at 250 μg ml^−1 to soft and solid media.
# [2] = tested on: T. maritima; assay: as above; type: cell-based, Thermotoga maritima; conditions: liquid SVO
# Description: as §1, §2
# [3] = crude yeast extract, 37° C., cited from earlier work
# [4] = tested on: pUC19 DNA; assay: Restriction assay of heat-purified cell extracts containing the REase; type: biochemical; conditions: for restriction activity retained on storage: heat-purified extract stored at 4° C.
# Description: One gram of E. coli wet cells grown at 37° C., containing pJC339 or pJC340 or both, were resuspended in 3 ml lysis buffer (10 mM Tris-HCl, 10 mM MgCl2, 50 mM NaCl, 1 mM DTT, pH 8.0) and were lysed with two passages through a French press at 14,000 pounds per square inch. After centrifugation at 27 k×g for 25 min, the supernatant was transferred to a new tube and heated at 77° C. for 1 h to denature most of the host proteins, followed by another round of centrifugation at 17 k×g for 15 min. The supernatant containing purified Thermotoga proteins was stored at 4° C. Such extracts retained 100% of the restriction activity for up to 5 weeks, and ≧50% of the activity for at least 12 weeks. For expression analysis, heat-purified cell extracts were mixed with loading buffer and were subjected to sodium dodecyl sulfate-polyacrylamide gel electrophoresis (SDS-PAGE) in 15% (w/v) gels. HisDetector Western Blot Kit (Kirkegaard & Perry Laboratories, Inc., Maryland, USA) was used for colorimetric immunodetection of histidine-tagged CTN—0339 protein. For restriction assays, heat-purified cell extracts containing the REase were serially diluted in 2-fold steps with the lysis buffer and were incubated with 5 μg of substrate DNA in a reaction volume of 50 μl. After 1 h of incubation at 50° C., 65° C., or 77° C., the reaction was terminated with 5 μl of stopping buffer (50 mM EDTA, 50% (w/v) glycerol, 0.02% (w/v) bromophenol blue, pH 8.0). Digested DNA fragments were resolved on 1% (w/v) agarose gels. One unit of the REase activity is defined as the quantity required to completely digest 1 μg of pUC19 DNA in 1 h at 77° C. For modification assays, heat-purified cell extracts containing the MTase were serially diluted in 2-fold steps with the lysis buffer and were incubated with 5 μg of substrate DNA in a total volume of 50 μl. After 1 h of incubation at 77° C., the reaction mix was then incubated with 0.5 U of the REase at 77° C. for overnight. One unit of the MTase activity is defined as the quantity required to completely protect 1 μg of pUC19 DNA from the cleavage of the REase for 1 h at 77° C.
# The PCR product of CTN—0339 was completely digested by heat-purified REase. Two fragments were generated and were retrieved from agarose gels. The smaller piece was directly analyzed by Sanger sequencing; the larger piece was further digested by NdeI and was inserted into pUC19 at the NdeI-SmaI sites to form pDH22. The insertion region of the constructed vector was sequenced.
# To provide further evidence to the functions of the two Thermotoga proteins, we first tested the restriction activity of CTN—0339 at 50° C., 65° C., and 77° C. using pUC19 plasmid DNA prepared from strain XL1-Blue MRF′. […] (FIG. 3). […] (FIG. 3). […]
# [5] = tested on: pUC19 DNA; assay: Modification assay: protection of pUC19 DNA from the REase by CTN_0340 extract; type: biochemical; conditions: 10 μl extract, 77° C. 1 h, then REase overnight at 77° C.
# Description: One gram of E. coli wet cells grown at 37° C., containing pJC339 or pJC340 or both, were resuspended in 3 ml lysis buffer (10 mM Tris-HCl, 10 mM MgCl2, 50 mM NaCl, 1 mM DTT, pH 8.0) and were lysed with two passages through a French press at 14,000 pounds per square inch. After centrifugation at 27 k×g for 25 min, the supernatant was transferred to a new tube and heated at 77° C. for 1 h to denature most of the host proteins, followed by another round of centrifugation at 17 k×g for 15 min. The supernatant containing purified Thermotoga proteins was stored at 4° C. Such extracts retained 100% of the restriction activity for up to 5 weeks, and ≧50% of the activity for at least 12 weeks. For expression analysis, heat-purified cell extracts were mixed with loading buffer and were subjected to sodium dodecyl sulfate-polyacrylamide gel electrophoresis (SDS-PAGE) in 15% (w/v) gels. HisDetector Western Blot Kit (Kirkegaard & Perry Laboratories, Inc., Maryland, USA) was used for colorimetric immunodetection of histidine-tagged CTN—0339 protein. […] One unit of the REase activity is defined as the quantity required to completely digest 1 μg of pUC19 DNA in 1 h at 77° C. […] One unit of the MTase activity is defined as the quantity required to completely protect 1 μg of pUC19 DNA from the cleavage of the REase for 1 h at 77° C. […]
# [6] = tested on: pUC19; assay: Enzyme activity assay of M.TneDI prepared from DH1021 strains; type: biochemical
# Description: Cells from 10 ml of the induced DH1021 cultures were harvested by centrifugation and were resuspended in 150 μl of lysis buffer (10 mM Tris-HCl, 10 mM MgCl2, 50 mM NaCl, 1 mM DTT, pH 8.0). Lysozyme was added to a final concentration of 0.3 mg/ml. The cell suspension was subject to 3 freeze-thaw cycles to lyse the cells. Cell lysate was then heated at 77° C. for 30 min to denature host proteins. After centrifugation at 21,130 g for 5 min, the supernatant was recovered and used as M.TneDI preparations for activity assays. Such prepared M.TneDI can be stored at −20° C. in the presence of 10% (v/v) glycerol for more than 2 months.
# Plasmid pUC19 extracted from a XL1-Blue MRF′ host was used as the substrate DNA (FIG. 10). Eight micrograms of pUC19 was incubated with 10 μl of the above prepared M.TneDI for 1 h at 77° C., supplemented with 20 μg/ml of S-adenosyl-L-methionine (AdoMet). The DNA was then subjected to restriction digestions of R.TneDI or other Type II REases recognizing CGCG sequence, such as BstUI. […] Based on the growth and the enzyme activity assays, DH10212-3 was identified as the best strain for production of M.TneDI.
molecule,measurement,setting,value
NC[C@H]1O[C@H](O[C@H]2[C@H](O)[C@@H](O[C@H]3O[C@H](CO)[C@@H](O)[C@H](N)[C@H]3O)[C@H](N)C[C@@H]2N)[C@H](O)[C@@H](O)[C@@H]1O [kanamycin],kanamycin concentration at which spontaneous mutants rarely showed up,[1],250 µg/mL
same,kanamycin concentration that completely inhibited growth,[2]; at least 72 h,50 µg/mL
same,kanamycin input needed for complete inhibition despite spontaneous mutations,[2]; over a period of 72 h,150 µg/mL
"C[S+](CC[C@H](N)C(=O)[O-])C[C@H]1O[C@@H](n2cnc3c(N)ncnc32)[C@H](O)[C@@H]1O (stereo partly drawn) [AdoMet, S-adenosyl-L-methionine]",original AdoMet found,[3]; 6 days,~70%
same,original AdoMet found,[3]; 15 days,~25%
B1,extract required to completely digest 1 μg of pUC19 DNA within 1 h,[4]; 65° C. or 50° C.,2.5 μl
same,extract required to completely digest 1 μg of pUC19 DNA within 1 h,"[4]; 77° C., relative to the amount at 65° C. or 50° C.",half of the amount
same,restriction activity retained on storage,[4]; at least 12 weeks,≥ 50%
same,restriction activity retained on storage,[4]; up to 5 weeks,100%
B2,digestion of treated pUC19 DNA by the REase,[5],only partially digested
same,protection of substrate DNA from R.TneDI or BstUI,"[6]; 10 μl preparation, 8 μg pUC19, 1 h at 77° C., 20 μg/ml AdoMet",prevents substrate DNA from the degradation
same,storage time of M.TneDI preparation,"[6]; −20° C., 10% (v/v) glycerol",more than 2 months
